Test results as given in patent publication US20240124560A1.

Assays:
Experiment in all cases: cell-based or functional assay
[1] = target: HIV-1 Env of pseudovirus NIH-118_T255.34 (HIV-1)
[2] = target: HIV-1 Env of pseudovirus NIH-003_SC422661.8 (HIV-1)
[3] = target: HIV-1 Env of pseudovirus NIH-041_BF1266.431a (HIV-1)
[4] = target: HIV-1 Env of NIH-056_Q168ENVa2 (HIV-1)
[5] = target: HIV-1 Env of NIH-040_Ce703010054 2A2 (HIV-1)
[6] = target: HIV-1 Env of NIH-108_T235.47 (HIV-1)
[7] = target: HIV-1 Env of pseudovirus NIH-104_3103.v3.c10 (HIV-1)
[8] = target: HIV-1 Env of pseudovirus NIH-108_T235.47 (HIV-1)
[9] = target: HIV-1 Env of pseudovirus NIH-042_ZM246F.D5 (HIV-1)
[10] = target: HIV-1 Env of pseudovirus NIH-054_CNE53 (HIV-1)
[11] = target: HIV-1 Env of pseudovirus NIH-070_R2184.c04 (HIV-1)
[12] = target: HIV-1 Env of NIH-032_HIV-16845.2.22 (HIV-1)
[13] = target: HIV-1 Env of NAC_SF162 (HIV-1)
[14] = target: HIV-1 Env of NIH-042_ZM246F.D5 (HIV-1)
[15] = target: HIV-1 Env of NIH-044_ZM247F.F7 (HIV-1)
[16] = target: HIV-1 Env of NIH-107_T251.18 (HIV-1)
[17] = target: HIV-1 Env of pseudovirus NIH-015_62357.14.D3.4589 (HIV-1)
[18] = target: HIV-1 Env of pseudovirus NIH-074_C4118.c09 (HIV-1)
[19] = target: HIV-1 Env of pseudovirus NAC_REJO.67 (HIV-1)
[20] = target: HIV-1 Env of pseudovirus NAC_JRCSF (HIV-1) (UniProt P20871)
[21] = target: HIV-1 Env of pseudovirus NIH-035_Ce1176 A3 (HIV-1)
[22] = target: HIV-1 Env of pseudovirus NIH-053_CNE52 (HIV-1)
[23] = target: HIV-1 Env of NIH-115_928.28 (HIV-1)
[24] = target: HIV-1 Env of NIH-052_CNE30 (HIV-1)
[25] = target: HIV-1 Env of NIH-041_BF1266.431a (HIV-1)
[26] = target: HIV-1 Env of pseudovirus NAC_SS1196.1 (HIV-1)
[27] = target: HIV-1 Env of pseudovirus NIH-046_1394C9G1(Rev.) (HIV-1)
[28] = target: HIV-1 Env of pseudovirus NIH-095_6480.v4.c25 (HIV-1)
[29] = target: HIV-1 Env of pseudovirus NIH-006_AC10.0.29 (HIV-1)
[30] = target: HIV-1 Env of NIH-030_HIV-0013095.2.11 (HIV-1)
[31] = target: HIV-1 Env of isolate NIH-086_X2131 C1 B5 (HIV-1)
[32] = target: HIV-1 Env of NIH-063_0330.v4.c3 (HIV-1)
[33] = target: HIV-1 Env of pseudovirus NIH-002_QHO692 .42 (HIV-1)
[34] = target: HIV-1 Env of pseudovirus NIH-082_X1193 c1 (clade G) (HIV-1)
[35] = target: HIV-1 Env of isolate NIH-089_3016.v5.c45 (HIV-1)
[36] = target: HIV-1 Env of pseudovirus NIH-097_6811.v7.c18 (HIV-1)
[37] = target: HIV-1 Env of NIH-043_ZM249M.B10 (HIV-1)
[38] = target: HIV-1 Env of NIH-066_191084 B7.19 (HIV-1)
[39] = target: HIV-1 Env of NIH-081_BJOX028000.10.3 (HIV-1)
[40] = target: HIV-1 Env of NIH-078_BJOX015000.11.5 (HIV-1)
[41] = target: HIV-1 Env of pseudovirus NAC_DH12 (HIV-1)
[42] = target: HIV-1 Env of NIH-027_CAP45.G3 (HIV-1)
[43] = target: HIV-1 Env of pseudovirus NIH-008_WEAU.d15.410.787 (HIV-1)
[44] = target: HIV-1 Env of NIH-008_WEAU.d15.410.787 (HIV-1)
[45] = target: HIV-1 Env of NHI-028_CAP210.E8 (HIV-1)
[46] = target: HIV-1 Env of NAC_94UG103 (HIV-1)

Chain of HIV-1 Env of pseudovirus NAC_JRCSF (HIV-1) (P20871 32-848): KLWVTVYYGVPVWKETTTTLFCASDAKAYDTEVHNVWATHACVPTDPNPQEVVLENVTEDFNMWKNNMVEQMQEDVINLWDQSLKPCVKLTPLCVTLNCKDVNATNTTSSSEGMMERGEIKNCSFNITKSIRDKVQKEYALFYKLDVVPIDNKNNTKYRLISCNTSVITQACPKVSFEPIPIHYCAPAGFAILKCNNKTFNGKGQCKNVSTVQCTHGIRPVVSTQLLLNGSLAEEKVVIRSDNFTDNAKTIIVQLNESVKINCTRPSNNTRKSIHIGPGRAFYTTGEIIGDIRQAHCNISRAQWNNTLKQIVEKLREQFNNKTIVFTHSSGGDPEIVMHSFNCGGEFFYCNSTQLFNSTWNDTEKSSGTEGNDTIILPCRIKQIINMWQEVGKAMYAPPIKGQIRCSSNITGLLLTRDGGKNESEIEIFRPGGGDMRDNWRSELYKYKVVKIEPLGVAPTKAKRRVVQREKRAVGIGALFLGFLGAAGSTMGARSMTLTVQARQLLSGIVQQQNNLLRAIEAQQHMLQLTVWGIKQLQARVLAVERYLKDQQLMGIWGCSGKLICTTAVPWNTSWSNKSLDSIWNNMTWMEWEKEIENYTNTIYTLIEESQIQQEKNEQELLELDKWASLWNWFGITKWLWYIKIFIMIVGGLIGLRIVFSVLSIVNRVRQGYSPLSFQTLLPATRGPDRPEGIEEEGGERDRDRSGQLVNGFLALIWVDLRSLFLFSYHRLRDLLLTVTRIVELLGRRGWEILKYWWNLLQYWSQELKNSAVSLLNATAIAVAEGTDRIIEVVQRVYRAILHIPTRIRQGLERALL

VRC01 (antibody) was tested, and the neutralization IC50 [1] was 0.229 µg/mL, the neutralization IC50 [2] was 0.124 µg/mL and the neutralization IC50 [3] was 0.028 µg/mL. It also gave an IC80 neutralization [4] of 0.218 µg/mL, an IC80 neutralization [5] of 0.595 µg/mL and an IC80 neutralization [6] of 0.084 µg/mL. For the same substance, the neutralization IC50 [7] was 1.53 µg/mL, the neutralization IC50 [8] was 0.021 µg/mL and the neutralization IC50 [9] was 10.7 µg/mL. For the same substance, the neutralization IC50 [10] was 0.042 µg/mL, the neutralization IC50 [11] was 0.103 µg/mL and the IC80 neutralization [12] was 4.25 µg/mL. The IC80 neutralization [13] was 1.03 µg/mL, the IC80 neutralization [14] was 43.7 µg/mL and the IC80 neutralization [15] was 0.945 µg/mL. For the same substance, the IC80 neutralization [16] was 8.63 µg/mL, the neutralization IC50 [17] was 1.74 µg/mL and the neutralization IC50 [18] was 0.05 µg/mL. The neutralization IC50 [19] was 0.106 µg/mL, the neutralization IC50 [20] was 0.172 µg/mL and the neutralization IC50 [21] was 1.25 µg/mL. The neutralization IC50 [22] was 0.142 µg/mL, the IC80 neutralization [23] was 0.99 µg/mL and the IC80 neutralization [24] was 2.38 µg/mL. It also gave an IC80 neutralization [25] of 0.11 µg/mL, a neutralization IC50 [26] of 0.166 µg/mL and a neutralization IC50 [27] of 0.28 µg/mL. The neutralization IC50 [28] was 0.014 µg/mL, the neutralization IC50 [29] was 0.867 µg/mL and the IC80 neutralization [30] was 0.058 µg/mL. For the same substance, the IC80 (µg/ml), TZM-bl pseudovirus neutralization [31] was 0.284 µg/mL, the IC80 neutralization [32] was 0.13 µg/mL and the neutralization IC50 [33] was 1.96 µg/mL. The IC50 (µg/ml), TZM-bl cell neutralization assay, pseudovirus [34] was 0.098 µg/mL, the IC80 (µg/ml), TZM-bl pseudovirus neutralization [35] was 0.223 µg/mL and the neutralization IC50 [36] was 0.14 µg/mL. For the same substance, the IC80 neutralization [37] was 0.275 µg/mL, the IC80 neutralization [38] was 0.188 µg/mL and the IC80 neutralization [39] was 0.573 µg/mL. The IC80 neutralization [40] was 0.242 µg/mL, the neutralization IC50 [41] was 0.227 µg/mL and the IC80 neutralization [42] was 10.1 µg/mL. It also gave a neutralization IC50 [43] of 0.076 µg/mL, an IC80 neutralization [44] of 0.306 µg/mL and an IC80 neutralization [45] greater than 50 µg/mL. It also gave an IC80 neutralization [46] of 0.752 µg/mL.
PGZL1 (antibody) showed a neutralization IC50 [1] of 3.35 µg/mL, a neutralization IC50 [2] of 16.8 µg/mL and a neutralization IC50 [3] of 48.8 µg/mL. The IC80 neutralization [4] was greater than 50 µg/mL, the IC80 neutralization [5] was greater than 50 µg/mL and the IC80 neutralization [6] was 6.62 µg/mL. It also gave a neutralization IC50 [7] greater than 50 µg/mL, a neutralization IC50 [8] of 1.54 µg/mL and a neutralization IC50 [9] of 19.9 µg/mL. The neutralization IC50 [10] was 6 µg/mL, the neutralization IC50 [11] was 12.9 µg/mL and the IC80 neutralization [12] was 2.47 µg/mL. It also gave an IC80 neutralization [13] of 48.6 µg/mL, an IC80 neutralization [14] greater than 50 µg/mL and an IC80 neutralization [15] of 48.2 µg/mL. It also gave an IC80 neutralization [16] greater than 50 µg/mL, a neutralization IC50 [17] of 27.2 µg/mL and a neutralization IC50 [18] of 8.37 µg/mL. The neutralization IC50 [19] was 10.7 µg/mL, the neutralization IC50 [20] was 13.4 µg/mL and the neutralization IC50 [21] was 31.7 µg/mL. It also gave a neutralization IC50 [22] of 24.3 µg/mL, an IC80 neutralization [23] of 5.45 µg/mL and an IC80 neutralization [24] greater than 50 µg/mL. For the same substance, the IC80 neutralization [25] was greater than 50 µg/mL, the neutralization IC50 [26] was 5.4 µg/mL and the neutralization IC50 [27] was 7.87 µg/mL. It also gave a neutralization IC50 [28] of 15 µg/mL, a neutralization IC50 [29] of 4.64 µg/mL and an IC80 neutralization [30] of 0.113 µg/mL. For the same substance, the IC80 (µg/ml), TZM-bl pseudovirus neutralization [31] was 3.5 µg/mL, the IC80 neutralization [32] was greater than 50 µg/mL and the neutralization IC50 [33] was 42 µg/mL. It also gave an IC50 (µg/ml), TZM-bl cell neutralization assay, pseudovirus [34] of 5.31 µg/mL, an IC80 (µg/ml), TZM-bl pseudovirus neutralization [35] of 10.6 µg/mL and a neutralization IC50 [36] greater than 50 µg/mL. It also gave an IC80 neutralization [37] of 25.6 µg/mL, an IC80 neutralization [38] greater than 50 µg/mL and an IC80 neutralization [39] of 20.9 µg/mL. The IC80 neutralization [40] was 10.5 µg/mL, the neutralization IC50 [41] was 4.71 µg/mL and the IC80 neutralization [42] was greater than 50 µg/mL. It also gave a neutralization IC50 [43] of 10 µg/mL, an IC80 neutralization [44] of 39.6 µg/mL and an IC80 neutralization [45] greater than 50 µg/mL. The IC80 neutralization [46] was greater than 50 µg/mL.
4E10 (antibody) showed a neutralization IC50 [1] of 0.326 µg/mL, a neutralization IC50 [2] of 2.78 µg/mL and a neutralization IC50 [3] of 2.47 µg/mL. For the same substance, the IC80 neutralization [4] was 15.1 µg/mL, the IC80 neutralization [5] was 12.5 µg/mL and the IC80 neutralization [6] was 1.07 µg/mL. For the same substance, the neutralization IC50 [7] was 8.11 µg/mL, the neutralization IC50 [8] was 0.248 µg/mL and the neutralization IC50 [9] was 1.68 µg/mL. It also gave a neutralization IC50 [10] of 0.38 µg/mL, a neutralization IC50 [11] of 0.223 µg/mL and an IC80 neutralization [12] of 0.653 µg/mL. It also gave an IC80 neutralization [13] of 8.26 µg/mL, an IC80 neutralization [14] of 6.7 µg/mL and an IC80 neutralization [15] of 7.5 µg/mL. It also gave an IC80 neutralization [16] of 3.97 µg/mL, a neutralization IC50 [17] of 2.87 µg/mL and a neutralization IC50 [18] of 0.322 µg/mL. The neutralization IC50 [19] was 1.87 µg/mL, the neutralization IC50 [20] was 0.823 µg/mL and the neutralization IC50 [21] was 1.74 µg/mL. For the same substance, the neutralization IC50 [22] was 0.954 µg/mL, the IC80 neutralization [23] was 0.438 µg/mL and the IC80 neutralization [24] was 16.6 µg/mL. For the same substance, the IC80 neutralization [25] was 10 µg/mL, the neutralization IC50 [26] was 0.99 µg/mL and the neutralization IC50 [27] was 2.58 µg/mL. The neutralization IC50 [28] was 0.561 µg/mL, the neutralization IC50 [29] was 0.666 µg/mL and the IC80 neutralization [30] was 0.258 µg/mL. It also gave an IC80 (µg/ml), TZM-bl pseudovirus neutralization [31] of 0.765 µg/mL, an IC80 neutralization [32] of 4.17 µg/mL and a neutralization IC50 [33] of 6.19 µg/mL. For the same substance, the IC50 (µg/ml), TZM-bl cell neutralization assay, pseudovirus [34] was 0.359 µg/mL, the IC80 (µg/ml), TZM-bl pseudovirus neutralization [35] was 3.73 µg/mL and the neutralization IC50 [36] was 2.74 µg/mL. For the same substance, the IC80 neutralization [37] was 4.55 µg/mL, the IC80 neutralization [38] was 9.04 µg/mL and the IC80 neutralization [39] was 1.88 µg/mL. For the same substance, the IC80 neutralization [40] was 0.647 µg/mL, the neutralization IC50 [41] was 1.17 µg/mL and the IC80 neutralization [42] was 4.19 µg/mL. For the same substance, the neutralization IC50 [43] was 0.621 µg/mL, the IC80 neutralization [44] was 2.59 µg/mL and the IC80 neutralization [45] was 3.53 µg/mL. For the same substance, the IC80 neutralization [46] was 7.48 µg/mL.
